Five molecules from patent publication US20160159910A1 (Genentech, published 2016) can be followed below.

Assay [1] addresses T1, human B7-H4 S114A glycosylation mutant (human, UniProt Q7Z7D3 29-282).
T1 construct: Full-length human B7-H4 membrane construct with S114 changed to alanine to prevent N-linked glycosylation at N112-S114; transiently expressed on 293 cells; also called mutated S114A human B7-H4; recombinant human B7-H4 S114A
T1 sequence: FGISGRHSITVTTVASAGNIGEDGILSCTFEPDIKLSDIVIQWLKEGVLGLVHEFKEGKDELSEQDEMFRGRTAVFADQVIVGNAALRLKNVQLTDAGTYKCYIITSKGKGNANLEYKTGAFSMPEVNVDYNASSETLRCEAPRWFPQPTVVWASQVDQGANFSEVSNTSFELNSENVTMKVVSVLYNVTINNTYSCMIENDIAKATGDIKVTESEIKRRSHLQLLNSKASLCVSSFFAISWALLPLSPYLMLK
The assay is described as follows: FACS on 293 cells transfected with S114A human B7-H4 (glycosylation independence).

In assay [2] the target is T2, human B7-H4 (human, UniProt Q7Z7D3 29-282).
T2 construct: On stably transfected 293 cells (recombinant) or on MX-1 / SKBR3 tumor cells (endogenous); the cell is named under assay; also called huB7-H4; hB7-H4
T2 sequence: T1 sequence with A86S
The assay is described as follows: Scatchard analysis, 125I-antibody radioligand cell binding on stably transfected 293 cells. How it is done: (§1) Competition assay mixtures of 50 μL volume containing a fixed concentration of [I¹²⁵] labeled antibody and decreasing concentrations of serially diluted, unlabeled antibody were placed into 96-well plates. […] Cells were detached from the flask using Sigma Cell Dissociation Solution and were washed with binding buffer, which consisted of Dulbecco's Modified Eagle Medium (DMEM) with 1% bovine serum albumin (BSA), […] and 0.1% sodium azide. The washed cells were added to the 96 well plates at a density of 100,000 cells in 0.2 mL of binding buffer. The final concentration of the [I¹²⁵] labeled antibody in each well was ˜250 pM. The final concentration of the unlabeled antibody in the competition assay ranged from 1000 nM through ten 2-fold dilution steps to a 0 nM buffer-only assay. Competition assays were carried out in triplicate. Competition assays were incubated for 2 hours at room temperature. After the 2-hour incubation, the competition assays were transferred to a Millipore Multiscreen filter plate (Billerica, Mass.) and washed 4 times with binding buffer to separate the free from bound [I¹²⁵] labeled antibody. The filters were counted on a Wallac Wizard 1470 gamma counter (PerkinElmer Life and Analytical Sciences Inc.; Wellesley, Mass.). The binding data was evaluated using NewLigand software (Genentech), which uses the fitting algorithm of Munson and Robard to determine the binding affinity of the antibody (Munson and Robard 1980).

Assay [3] deals with T3, cynomolgus monkey B7-H4 (cynomolgus monkey, UniProt Q7Z7D3 29-282 (human entry)).
T3 construct: On stably transfected 293 cells; also called cyno B7-H4; recombinant cynomolgus monkey B7-H4
T3 chain: T1 sequence with L49I, A86S, F238L, S248A
The description is as above. How it is done: as §1

For assay [4], the target named is T4, rat B7-H4 (rat, UniProt Q501W4 29-282).
T4 construct: On stably transfected 293 cells; also called recombinant rat B7-H4
T4 sequence: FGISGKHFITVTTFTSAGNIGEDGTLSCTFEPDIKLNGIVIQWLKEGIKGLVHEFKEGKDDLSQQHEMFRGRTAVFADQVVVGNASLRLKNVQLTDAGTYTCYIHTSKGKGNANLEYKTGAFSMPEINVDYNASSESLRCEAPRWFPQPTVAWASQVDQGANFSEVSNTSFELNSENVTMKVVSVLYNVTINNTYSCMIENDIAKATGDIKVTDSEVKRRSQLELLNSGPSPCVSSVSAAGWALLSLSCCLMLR
Put plainly: Scatchard on stable cell line expressing recombinant B7-H4 (footnote 1 of the table). How it is done: Competition assay mixtures of 50 μL volume containing a fixed concentration of [I¹²⁵] labeled antibody and decreasing concentrations of serially diluted, unlabeled antibody were placed into 96-well plates. […] Cells were detached from the flask using Sigma Cell Dissociation Solution and were washed with binding buffer, which consisted of Dulbecco's Modified Eagle Medium (DMEM) with 1% bovine serum albumin (BSA), 300 mM human IgG and 0.1% sodium azide. The washed cells were added to the 96 well plates at a density of 100,000 cells in 0.2 mL of binding buffer. The final concentration of the [I¹²⁵] labeled antibody in each well was ˜250 pM. The final concentration of the unlabeled antibody in the competition assay ranged from 1000 nM through ten 2-fold dilution steps to a 0 nM buffer-only assay. Competition assays were carried out in triplicate. Competition assays were incubated for 2 hours at room temperature.

In assay [5] the target is T2, human B7-H4. The assay is described as follows: Scatchard analysis, 125I-antibody radioligand cell binding on MX-1 tumor cells. Here is the method: as §1
Assay [6] addresses T2, human B7-H4. Put plainly: Scatchard analysis on MX-1 cells; the table puts the affinity of 10 nM beside the parent antibody's 4.9 nM. How it is done: as §1, with “After the 2-hour incubation, the competition assays were transferred to a Millipore Multiscreen filter plate (Billerica, Mass.) and washed 4 times with binding buffer to separate the free from bound [I¹²⁵] labeled antibody.” left out

Assay [7] has as its target T5, mouse B7-H4 (mouse, UniProt Q7TSP5 29-283).
T5 construct: On stably transfected 293 cells; also called muB7-H4; recombinant mouse B7-H4
T5 sequence: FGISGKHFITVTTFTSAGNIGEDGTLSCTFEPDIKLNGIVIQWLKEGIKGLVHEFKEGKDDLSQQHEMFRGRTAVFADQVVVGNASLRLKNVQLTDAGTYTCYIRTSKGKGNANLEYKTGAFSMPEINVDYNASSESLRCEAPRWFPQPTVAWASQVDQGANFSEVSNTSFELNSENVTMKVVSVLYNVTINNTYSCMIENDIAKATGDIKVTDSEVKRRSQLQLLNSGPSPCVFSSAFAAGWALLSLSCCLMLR
The assay is described as follows: FACS titration on 293 cells expressing recombinant mouse B7-H4 (panel '293-mouse B7-H4', upper block), geometric mean fluorescence. How it is done: (§2) The fluorescent signal was acquired with a BD FACS Calibur and EC₅₀ values were determined with the Graph Pad program Prism 4.

The target of assay [8] is T2, human B7-H4. The assay is described as follows: FACS titration on MX-1 tumor cells, endogenous human B7-H4 (panel 'MX-1 tumor cell line', upper block), geometric mean fluorescence. Here is the method: as §2
In assay [9] the target is T3, cynomolgus monkey B7-H4. Put plainly: FACS titration on 293 cells expressing recombinant cynomolgus B7-H4 (panel '293-cyno B7-H4', upper block), geometric mean fluorescence. Here is the method: as §2
Assay [10] addresses T2, human B7-H4. Put plainly: FACS titration on 293 cells expressing recombinant human B7-H4 (panel '293-human B7-H4', upper block), Dylight-650 goat anti-human IgG, geometric mean fluorescence. Here is the method: as §2
Assay [11] concerns the target T2, human B7-H4. The assay is described as follows: Scatchard analysis on MX-1 cells; the table puts the affinity of 8.3 nM beside the parent antibody's 7.8 nM. How it is done:
as §1, with “After the 2-hour incubation, the competition assays were transferred to a Millipore Multiscreen filter plate (Billerica, Mass.) and washed 4 times with binding buffer to separate the free from bound [I¹²⁵] labeled antibody.” left out

The target in assay [12] is T5, mouse B7-H4. Put plainly: FACS titration on 293 cells expressing recombinant mouse B7-H4 (panel '293-mouse B7-H4', lower block), geometric mean fluorescence. How it is done:
as §2

Assay [13] has as its target T2, human B7-H4. The assay is described as follows: FACS titration on MX-1 tumor cells, endogenous human B7-H4 (panel 'MX-1 tumor cell line', lower block), geometric mean fluorescence. How it is done: as §2
The target of assay [14] is T3, cynomolgus monkey B7-H4. The assay is described as follows: FACS titration on 293 cells expressing recombinant cynomolgus B7-H4 (panel '293-cyno B7-H4', lower block), geometric mean fluorescence. How it is done: as §2
For assay [15], the target named is T2, human B7-H4. The assay is described as follows: FACS titration on 293 cells expressing recombinant human B7-H4 (panel '293-human B7-H4', lower block), Dylight-650 goat anti-human IgG, geometric mean fluorescence. How it is done: as §2
The target in assay [16] is T2, human B7-H4. Put plainly: Scatchard analysis on MX-1 cells; the table puts the affinity of 8.7 nM beside the parent antibody's 7.8 nM. How it is done:
as §1, with “After the 2-hour incubation, the competition assays were transferred to a Millipore Multiscreen filter plate (Billerica, Mass.) and washed 4 times with binding buffer to separate the free from bound [I¹²⁵] labeled antibody.” left out

In assay [17] the target is T2, human B7-H4. The assay is described as follows: Scatchard analysis, radioligand cell binding on MX-1 cells (endogenous human B7-H4). Here is the method:
as §1, with “After the 2-hour incubation, the competition assays were transferred to a Millipore Multiscreen filter plate (Billerica, Mass.) and washed 4 times with binding buffer to separate the free from bound [I¹²⁵] labeled antibody.” left out

Assay [18] concerns the target T2, human B7-H4. The assay is described as follows: Scatchard analysis, radioligand cell binding on 293 cells expressing recombinant B7-H4. Here is the method:
as §1

Assay [19] deals with T3, cynomolgus monkey B7-H4. The assay is described as above. How it is done: as §1
The target of assay [20] is T5, mouse B7-H4. The assay is described as above. Here is the method:
as §1

Assay [21] addresses T4, rat B7-H4. The assay is described as above. How it is done:
as §1

Substitutions are numbered along the chain they refer to.

B1: chimeric antibody ch32D6 (antibody, human IgG1, V domains shown)
VH: EVQLQQSGPDLVKPGASVKISCKASGYSFTGYYIHWMKQSHGKSLEWIGRVNPNNGDPIYNQKFRGKAILTVDQSSNTAYMELRSLTSEASAVYYCARVLFYYGSPFAYWGQGTLVTVSA
VL: DIVMTQSPSSLIVTAGEKVTMSCRSSQSLFDSGSQRNYLTWFHQKPGRPPKLLIYWASTRESGVPDRFTGSGSGTDFTLTISSVQTEDLAVYFCQNDYSFPFTFGSGTKLEEK
notes: also called antibody 32D6
By Kd is commonly meant the equilibrium constant for the complex coming apart. B1: in assay [1], the “fold binding over the isotype control” value was found to be 100 fold. Besides, the Kd in the assay with human B7-H4 [2] was 4.8 nM; in the assay with cynomolgus monkey B7-H4 [3], 3.1 nM. Moreover, the binding result with rat B7-H4 [4] is given as “no binding”.

B2: humanized 22C10.v2.8 (antibody, V domains shown)
VH: EVQLVQSGAEVKKPGASVKVSCKASGYTFTNFWIHWVRQAPGQGLEWIGEIDPSDSYTNYNQKFKGRVTITRDTSTSTAYLELSSLRSEDTAVYYCAREITTVDYWGQGTLVTVSS
VL: DIQMTQSPSSLSASVGDRVTITCSATSSISYMHWYQQKPGKAPKGLIYDTSKLAHGVPSRFSGSGSGTDFTLTISSLQPEDFATYYCHQRRSYPFTFGQGTKVEIK
notes: Assessed in the form of an IgG produced in 293 cells; also called hu22C10.v2.8; h22C10.v2.8
As usually defined, the EC50 is the concentration at which the effect is half-maximal. As for B2, the Kd with human B7-H4 [5] was determined as 10 nM. Further, the “Fold to Parent mAb” value with human B7-H4 [6] turned out to be 0.49. In addition, the EC50 in the assay with mouse B7-H4 [7] stood at 0.97 µg/mL; in the assay with human B7-H4 [8], 0.73 µg/mL; in the assay with cynomolgus monkey B7-H4 [9], 1.19 µg/mL; in the assay with human B7-H4 [10], 1.44 µg/mL.

B3: humanized 1D11.v1.7 (antibody, V domains shown)
VH: EVQLVQSGAEVKKPGASVKVSCKASGYTFTSYWIGWVRQAPGQGLEWIGDIYPGGGYTNYNEKFKGRATLTRDTSTSTAYLELSSLRSEDTAVYYCARLDGSSYRGAMDSWGQGTLVTVSS
VL: DIQMTQSPSSLSASVGDRVTITCKASQGFNKYVAWYQQKPGKAPKLLIYYTSTLQPGVPSRFSGSGSGRDYTLTISSLQPEDFATYYCLQYGNLLYAFGQGTKVEIKR
notes: also called hu1D11.v1.7; h1D11.v1.7
Turning to B3, in the assay with human B7-H4 [5], the Kd amounted to 8.3 nM. Besides, the “Fold to Parent mAb” value with human B7-H4 [11] is 0.94. Besides, the EC50 with mouse B7-H4 [12] was determined as 0.45 µg/mL; in the assay with human B7-H4 [13], 0.34 µg/mL; in the assay with cynomolgus monkey B7-H4 [14], 0.68 µg/mL; with human B7-H4 [15] it was 0.66 µg/mL.

B4: humanized 1D11.v1.8 (antibody, V domains shown)
VH: B3 VH with L70I
VL: B3 VL
notes: also called hu1D11.v1.8; h1D11.v1.8
As to B4, in the assay with human B7-H4 [5], the Kd amounted to 8.7 nM. In the assay with human B7-H4 [16], the “Fold to Parent mAb” value worked out at 0.89. Further, the EC50 with mouse B7-H4 [12] stood at 1.32 µg/mL; with human B7-H4 [13], 0.53 µg/mL; with cynomolgus monkey B7-H4 [14] it was 0.18 µg/mL; in the assay with human B7-H4 [15] it was 2.29 µg/mL.

B5: hu1D11.v1.9 varC2 (antibody, V domains shown)
VH: B3 VH with A68V, L70I, D100A
VL: B3 VL with N93D
notes: IgG1 / kappa; also called h1D11v1.9_VarC2; h1D11v1.9 variant C2
With B5, the Kd was 2 nM with human B7-H4 [17]; 0.9 nM in the assay with human B7-H4 [18]; 1 nM in the assay with cynomolgus monkey B7-H4 [19]; 2.1 nM with mouse B7-H4 [20]; 1.2 nM with rat B7-H4 [21].
